Measured values taken from paper PMC10699770 (Science Advances, 2023).

Molecular target: full-length NAIP5 with an N-terminal Flag tag (mouse, UniProt Q9R016 1-1403)
Assay: cryo-EM structure

full-length NAIP5 with an N-terminal Flag tag, sequence (Q9R016 whole entry): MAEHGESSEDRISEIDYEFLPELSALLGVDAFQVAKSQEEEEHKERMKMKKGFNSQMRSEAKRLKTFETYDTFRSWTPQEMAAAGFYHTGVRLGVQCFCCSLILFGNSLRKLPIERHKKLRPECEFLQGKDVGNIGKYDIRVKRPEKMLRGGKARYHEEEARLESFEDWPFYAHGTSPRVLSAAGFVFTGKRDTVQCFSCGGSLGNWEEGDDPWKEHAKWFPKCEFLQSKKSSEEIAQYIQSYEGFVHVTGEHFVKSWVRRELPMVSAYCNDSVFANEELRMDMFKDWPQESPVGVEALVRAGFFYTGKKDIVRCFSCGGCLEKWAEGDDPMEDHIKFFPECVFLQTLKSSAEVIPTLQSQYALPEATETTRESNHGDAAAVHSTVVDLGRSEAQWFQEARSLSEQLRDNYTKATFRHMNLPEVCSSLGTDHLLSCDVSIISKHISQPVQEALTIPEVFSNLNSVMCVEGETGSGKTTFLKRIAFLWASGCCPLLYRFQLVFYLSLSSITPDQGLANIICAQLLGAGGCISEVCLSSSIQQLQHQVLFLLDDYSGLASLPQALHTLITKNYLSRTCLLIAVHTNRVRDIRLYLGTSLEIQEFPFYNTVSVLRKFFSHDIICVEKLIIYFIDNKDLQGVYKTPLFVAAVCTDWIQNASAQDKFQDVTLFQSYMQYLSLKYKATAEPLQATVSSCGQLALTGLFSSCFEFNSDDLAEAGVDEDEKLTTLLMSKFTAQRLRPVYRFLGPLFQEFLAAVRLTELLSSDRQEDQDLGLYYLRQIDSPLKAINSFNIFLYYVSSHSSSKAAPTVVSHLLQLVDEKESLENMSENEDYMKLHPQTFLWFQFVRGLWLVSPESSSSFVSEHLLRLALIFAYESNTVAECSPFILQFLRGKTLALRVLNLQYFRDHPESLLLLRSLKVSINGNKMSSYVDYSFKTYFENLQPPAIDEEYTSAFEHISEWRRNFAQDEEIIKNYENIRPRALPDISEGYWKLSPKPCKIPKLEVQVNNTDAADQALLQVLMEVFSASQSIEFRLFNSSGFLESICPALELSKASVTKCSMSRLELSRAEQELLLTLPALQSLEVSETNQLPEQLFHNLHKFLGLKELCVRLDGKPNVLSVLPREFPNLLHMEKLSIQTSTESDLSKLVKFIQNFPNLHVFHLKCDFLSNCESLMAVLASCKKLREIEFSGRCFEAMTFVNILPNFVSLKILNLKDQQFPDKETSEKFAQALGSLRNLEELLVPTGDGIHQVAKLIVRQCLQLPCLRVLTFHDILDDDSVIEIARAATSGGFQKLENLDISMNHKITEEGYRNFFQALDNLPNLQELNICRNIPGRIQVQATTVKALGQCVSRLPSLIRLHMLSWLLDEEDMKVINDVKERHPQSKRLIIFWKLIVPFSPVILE

B1: full-length S. typhimurium flagellin FliC with N-terminal His tag (natural protein)
chain: MAQVINTNSLSLLTQNNLNKSQSALGTAIERLSSGLRINSAKDDAAGQAIANRFTANIKGLTQASRNANDGISIAQTTEGALNEINNNLQRVRELAVQSANSTNSQSDLDSIQAEITQRLNEIDRVSGQTQFNGVKVLAQDNTLTIQVGANDGETIDIDLKQINSQTLGLDTLNVQQKYKVSDTAATVTGYADTTIALDNSTFKASATGLGGTDQKIDGDLKFDDTTGKYYAKVTVTGGTGKDGYYEVSVDKTNGEVTLAGGATSPLTGGLPATATEDVKNVQVANADLTEAKAALTAAGVTGTASVVKMSYTDNNGKTIDGGLAVKVGDDYYSATQNKDGSISINTTKYTADDGTSKTALNKLGGADGKTEVVSIGGKTYAASKAEGHNFKAQPDLAEAAATTTENPLQKIDAALAQVDTLRSDLGAVQNRFNSAITNLGNTVNNLTSARSRIEDSDYATEVSNMSRAQILQQAGTSVLAQANQVPQNVLSLLR
B1: binds.
